Consider 20 molecules from patent US20250340637A1 (ABPRO, published 2025).

Assay [1] concerns the target T1, HuCD3E (Homo sapiens, UniProt P07766 23-126, limits assumed).
T1 construct: Recombinant analyte in SPR and antigen in ELISA; also called human CD3; human CD3 epsilon
Description: SPR, Biacore 8K; CD3 Affinity column: Low.

Assay [2] addresses T1, HuCD3E. The experiment in a line: SPR, Biacore 8K; antibody captured, CD3E as analyte. How it is done: (§1) Initially, the affinity measurement of the anti-CD3 clones were determined using a Surface Plasmon Resonance (SPR) biosensor, Biacore 8K (GE Healthcare). The equilibrium dissociation constant (KD) was calculated from the ratio of kd over ka. To determine the contribution of a specific residue to antibody affinity and expression, paratope mapping was performed by screening of NNK libraries. In brief, the VH and VL of the parental antibody were searched by using NCBI Ig-Blast (www.ncbi.nlm.nih.gov/projects/igblast/) and CDRs were defined by the KABAT delineation system. All residues within CDRs were defined and mutated by NNK method. Each individual NNK library was generated per residue based on the FASEBA platform with a theoretical diversity at 20. The DNA encoding both heavy chain and light chain were inserted into a mammalian expression vector, transfected into CHO-S cells, and stable clones of highest expression were selected. Supernatants were collected from shaker flasks and purified on protein A affinity chromatography.
(§2) Affinity ranking. Binding between the parental and affinity-tuned bispecific antibodies and human and cyno target proteins (HER2 and CD3) was validated by ELISA, and a Biacore 8K was used to study the kinetics of the interaction between the antigen and the bispecific antibodies.
(In general: SPR reads the build-up and loss of mass on a sensor chip optically.)

Assay [3] has as its target T2, CynoCD3E (cyno, UniProt Q95LI5 22-117, limits assumed).
T2 construct: Recombinant analyte in SPR and antigen in ELISA; The construct is not described; also called cynomolgus CD3 epsilon
T2 sequence (looked up): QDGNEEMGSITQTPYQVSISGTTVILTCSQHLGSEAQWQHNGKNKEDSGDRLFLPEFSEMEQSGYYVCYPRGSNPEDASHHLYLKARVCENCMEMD
Described as above. How it is done: as §1, §2

The target in assay [4] is T1, HuCD3E. The experiment in a line: SPR, Biacore 8K; antibody captured, CD3E as analyte; sample after 24 h at 42° C. How it is done:
as §1
(§3) Thermal stability. […] After incubation, the supernatant was centrifuged at 4500 rpm, and undissolved substances was discarded. Heat-treated, purified full-length bispecific antibodies were re-evaluated for their concentrations, and affinity ranking of samples with thermal treatment to human and cyno CD3 was conducted.
as §2

The target in assay [5] is T2, CynoCD3E. Described as above. How it is done:
as §1, §3, §2

For assay [6], the target named is T1, HuCD3E. Description: SPR, Biacore 8K; CD3 Affinity column: Low. The source holds these as a separate data set.
Assay [7] deals with T1, HuCD3E. Description: SPR, Biacore 8K; CD3 Affinity column: Low. The source holds these as a separate data set.
The target in assay [8] is T1, HuCD3E. The experiment in a line: SPR, Biacore 8K; CD3 Affinity column: Low. How it is done:
as §1, §2
This is another data set of the same source.

Assay [9] concerns the target T1, HuCD3E. The experiment in a line: SPR, Biacore 8K; CD3 Affinity column: Hi.
Assay [10] has as its target T1, HuCD3E. The experiment in a line: SPR, Biacore 8K; CD3 Affinity column: Med; lower end of the range.
Assay [11] concerns the target T1, HuCD3E. The experiment in a line: SPR, Biacore 8K; CD3 Affinity column: Med; upper end of the range.
Assay [12] addresses T1, HuCD3E. Description: SPR, Biacore 8K; CD3 Affinity column: Low. The source holds these as a separate data set.

Residue numbers refer to the chain shown, from its start. Bounds are passed on as bounds.

Broadly, the Kd is the concentration at which binding is half-saturated. A high value points to weaker binding. A word on the koff: it is the rate constant with which the complex falls apart. The low end stands for a long-lived complex, the high end for a short-lived complex. A word on the kon: it is a measure of how fast the partners come together. High values mean faster complex formation, low ones slower complex formation.

T1 sequence (P07766 23-126 limits assumed): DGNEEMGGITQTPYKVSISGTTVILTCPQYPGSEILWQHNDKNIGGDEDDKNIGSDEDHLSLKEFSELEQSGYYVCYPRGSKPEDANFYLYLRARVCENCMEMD

B1: 32G4-V8-v5.5 (antibody, V domains shown)
VH: EVQLVESGGGLVQPGGSLKLSCAASGFTFNTYAMNWVRQAPGKGLEWVARIRSKYNNYATYYADSVKDRFTISRDDSKNTAYLQMNSLKTEDTAVYYCVRHGNFGNSYVSWFMYWGQGTLVTVSS
VL: QTVVTQEPSLTVSPGGTVTLTCRSSTGAVTTSNYANWVQQKPGQAFRGLIGGTNKRAPGVPARFSGSLLGGKAALTLSGVQPEDEAIYFCALWYSNLWVFGGGTKLTVL
Molecule B1 had a dissociation constant (Kd) in the assay with HuCD3E [1] of more than 100 nM.

B2: VH3 (SEQ ID NO: 18) + VL6 (SEQ ID NO: 19) (antibody, V domains shown)
VH: B1 VH with M113A
VL: B1 VL with T107E, V108I, L109K
notes: Humanized SP34 anti-CD3 variant; The sample heated at 42° C. is the same molecule and is marked under assay; also called VH3 + VL6
On to B2, for which the Kd in the assay with HuCD3E [2] was found to be 1.25 nM; with CynoCD3E [3], 1.71 nM; with HuCD3E [4], 1.38 nM; in the assay with CynoCD3E [5] it was 1.36 nM. Further, the koff with HuCD3E [2] stood at 0.000286 s⁻¹; with CynoCD3E [3] it was 0.000469 s⁻¹; with HuCD3E [4], 0.000343 s⁻¹; with CynoCD3E [5], 0.000489 s⁻¹. Moreover, the on-rate (kon) with HuCD3E [2] turned out to be 229000 M⁻¹ s⁻¹; in the assay with CynoCD3E [3] it was 274000 M⁻¹ s⁻¹; with HuCD3E [4], 249000 M⁻¹ s⁻¹; with CynoCD3E [5] it was 359000 M⁻¹ s⁻¹.

B3: 47D10-V7-v5.6 (antibody, V domains shown)
VH: B1 VH with M113A
VL: B1 VL with A91M
For the molecule B3, the Kd with HuCD3E [6] is more than 100 nM.

B4: ABP100s.10.0.5 (antibody, V domains shown)
VH: B1 VH with G44C
VL: B1 VL with G102C
B4 yielded an equilibrium dissociation constant (Kd) with HuCD3E [7] of more than 100 nM.

B5: ABP100s.10.5.6 (antibody, V domains shown)
VH: B1 VH with G44C, M113A
VL: B1 VL with A91M, G102C
B5: the dissociation constant (Kd) with HuCD3E [8] was more than 100 nM.

B6: ABP100s.10.0.1 (antibody, V domains shown)
VH: B1 VH with G44C, M113G
VL: B1 VL with G102C
For the molecule B6, in the assay with HuCD3E [9], the Kd is less than 10 nM.

B7: ABP100s.10.6.5 (antibody, V domains shown)
VH: B1 VH with G44C
VL: B1 VL with G102C
In turn, B7 came in with a Kd with HuCD3E [8] not below 100 nM.

B8: ABP100s.10.5 (antibody, V domains shown)
VH: B1 VH with G44C, M113A
VL: B1 VL with G102C
In the assay with HuCD3E [9], B8 yielded a dissociation constant Kd of less than 10 nM.

B9: ABP100s.10.4 (antibody, V domains shown)
VH: B1 VH with G44C, M113A
VL: B1 VL with G102C
The molecule B9 came in with a Kd with HuCD3E [9] of less than 10 nM.

B10: 32G4-V8-v5.6 (antibody, V domains shown)
VH: B1 VH with M113A
VL: B1 VL with A91M
With B10, in the assay with HuCD3E [1], the Kd was more than 100 nM.

B11: ABP100s.10.0.6 (antibody, V domains shown)
VH: B1 VH with G44C, M113A
VL: B1 VL with A91M, G102C
Take B11: in the assay with HuCD3E [7], the Kd was more than 100 nM.

B12: ABP100s.10.0.3 (antibody, V domains shown)
VH: B1 VH with G44C, S65K, M113A
VL: B1 VL with G102C
For B12, the Kd in the assay with HuCD3E [10] was not below 10 nM; with HuCD3E [11] it was not above 100 nM.

B13: 47D10-V7-v5.5 (antibody, V domains shown)
VH: B1 VH
VL: B1 VL
For B13, the Kd with HuCD3E [6] was more than 100 nM.

B14: ABP100s.10.6.6 (antibody, V domains shown)
VH: B1 VH with G44C, M113A
VL: B1 VL with A91M, G102C
In the assay with HuCD3E [1], B14 returned a Kd not below 100 nM.

B15: VH3 (SEQ ID NO: 18) + VL4 (SEQ ID NO: 20) (antibody, V domains shown)
VH: B1 VH with M113A
VL: B1 VL with I87E, T107E, V108I, L109K
notes: Humanized SP34 anti-CD3 variant; The sample heated at 42° C. is the same molecule and is marked under assay; also called VH3 + VL4
B15: the Kd with HuCD3E [2] stood at 1.72 nM; with CynoCD3E [3], 2.14 nM; with HuCD3E [4], 1.5 nM; with CynoCD3E [5] it was 1.9 nM. For the same molecule, the koff was 0.000331 s⁻¹ with HuCD3E [2], 0.000501 s⁻¹ with CynoCD3E [3], 0.000349 s⁻¹ in the assay with HuCD3E [4] and 0.00049 s⁻¹ in the assay with CynoCD3E [5]. For the same molecule, the on-rate (kon) is 192000 M⁻¹ s⁻¹ with HuCD3E [2], 234000 M⁻¹ s⁻¹ with CynoCD3E [3], 232000 M⁻¹ s⁻¹ with HuCD3E [4] and 257000 M⁻¹ s⁻¹ in the assay with CynoCD3E [5].

B16: ABP100s.10.0.4 (antibody, V domains shown)
VH: B1 VH with G44C, A63W, M113A
VL: B1 VL with G102C
As to B16, the Kd is not below 10 nM with HuCD3E [10] and not above 100 nM with HuCD3E [11].

B17: ABP100s.5.3 (antibody, V domains shown)
VH: B1 VH with M113A
VL: B1 VL with W93Y, T107E, V108I, L109K
On to B17, for which the Kd with HuCD3E [12] was more than 100 nM.

B18: ABP100s.10.5.5 (antibody, V domains shown)
VH: B1 VH with G44C
VL: B1 VL with G102C
As for B18, the dissociation constant (Kd) with HuCD3E [8] was more than 100 nM.

B19: ABP100s.10.0.2 (antibody, V domains shown)
VH: B1 VH with G44C, Y62K, M113A
VL: B1 VL with G102C
On to B19, for which the equilibrium dissociation constant (Kd) with HuCD3E [10] is not below 10 nM; with HuCD3E [11] it was not above 100 nM.

B20: ABP100s.10.6 (antibody, V domains shown)
VH: B1 VH with G44C, M113A
VL: B1 VL with G102C
For the molecule B20, in the assay with HuCD3E [9], the dissociation constant (Kd) was less than 10 nM.
